In paper PMC5359625, “The Interrelationship between Abscisic Acid and Reactive Oxygen Species Plays a Key Role in Barley Seed Dormancy and Germination”:

How the values were obtained:
[1] = target: T1, GST-HvABI5 (Hordeum vulgare, UniProt Q8GTR6 1-353); assay: EMSA; DIG Gel Shift Kit 2nd Generation (Roche), manufacturer's conditions; buffer, salt, pH and temperature not stated; settings: protein: recombinant; tags: N-terminal GST (pGEX); chain copies: 2; label: DIG; blunt
T1 sequence: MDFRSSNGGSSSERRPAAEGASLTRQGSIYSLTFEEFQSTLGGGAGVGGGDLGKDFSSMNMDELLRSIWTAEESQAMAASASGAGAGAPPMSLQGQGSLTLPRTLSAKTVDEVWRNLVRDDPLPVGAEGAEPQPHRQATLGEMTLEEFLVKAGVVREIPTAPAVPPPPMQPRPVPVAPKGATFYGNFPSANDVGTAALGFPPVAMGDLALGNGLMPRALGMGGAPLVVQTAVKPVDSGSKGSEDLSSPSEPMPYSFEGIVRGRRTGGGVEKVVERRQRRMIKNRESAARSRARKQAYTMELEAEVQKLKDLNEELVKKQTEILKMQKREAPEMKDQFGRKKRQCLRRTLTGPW

[2] = target: T1, GST-HvABI5; assay: competition; 100x molar excess unlabeled competitor vs DIG-labeled N1; DIG Gel Shift Kit 2nd Generation (Roche), manufacturer's conditions; buffer, salt, pH and temperature not stated; settings: protein: recombinant; tags: N-terminal GST (pGEX); chain copies: 2; label: none; blunt

B1: HvCAT2-probe (HvCAT2 promoter, ABRE) (dsDNA)
DNA 1: CACACACACGCACTACGTTCCGAGCATTGCGTCGCGGTGGGTGAG
DNA 2: CTCACCCACCGCGACGCAATGCTCGGAACGTAGTGCGTGTGTGTG
binding result [1]: binds

B2: unlabeled HvCAT2 probe competitor (dsDNA)
DNA 1: CACACACACGCACTACGTTCCGAGCATTGCGTCGCGGTGGGTGAG
DNA 2: CTCACCCACCGCGACGCAATGCTCGGAACGTAGTGCGTGTGTGTG
binding result [2]: binds
